Results taken from patent US20260055186A1 (REPERTOIRE IMMUNE MEDICINES, published 2026).

Key:
[1] = biological target: T1, human CD8 on human T cells (human, UniProt P01732 22-235); test: flow cytometry on human CD8+ T cells, titration
T1 construct: whole, on cells; the antibodies were raised against human CD8 alpha; also called CD8 on human CD8+ T cells; hCD8
Procedure: (§1) The 16 above-referenced humanized 03A01-derived anti-CD8 antibodies were screened for their ability to bind human CD8 by evaluating binding to CD8⁺ T cells. The non-humanized parent (“03-Parent”) and the non-humanized parent comprising a heavy chain D64E liability mutation (“03-Parent-VH-D64E”) were used as controls. […] Cells were washed with 1×phosphate buffered saline (PBS) containing 1 mg/mL bovine serum albumin (PBS/BSA) and then stained with a 1:100 dilution of DyLight650-conjugated anti-human IgG H+L polyclonal antibody (ThermoFisher cat. no. Sa5-10129) in PBS/BSA. Following a 20-30 min incubation at 4° C., the cells were washed once with PBS/BSA, and then resuspended in PBS/BSA for analysis on a FACSCelesta using Diva software (BD Biosciences). The resulting data were analyzed using FlowJo. Data were quantified and reported as Max fluorescence intensity (MFI) of human IgG-Fc. […] Complete replacement of the LCDR1 (antibodies comprising VK4) eliminated binding to the CD8⁺ T cells.
(§2) The binding affinities of five of the above-referenced humanized anti-CD8 antibodies to human CD8 were determined by evaluating binding to CD8 human T cells using the method described above. Binding to human CD8+ T cells was tested at 7 serial 5-fold dilutions of each humanized 03A01 variant (from 50 nM to 3.2 pM). The resulting data were analyzed using FlowJo.

[2] = biological target: T1, human CD8 on human T cells; test: flow cytometry on human CD8+ T cells, titration, apparent KD
Procedure: as §1, §2

[3] = biological target: T1, human CD8 on human T cells; test: flow cytometry, human CD8+ T cells, antibody at 5 nM, anti-human IgG detection (MFI AF647)
Procedure: as §1

[4] = biological target: T1, human CD8 on human T cells; test: flow cytometry on human CD3+ T cells, apparent KD, 4PL fit
Procedure: (§3) The amino acid sequences of the resulting murine anti-CD8 antibodies 02A01, 03A01, 04D08, 05F10, and 11F05 are provided in Tables 1-3 herein above. These antibodies were recombinantly produced. Their binding affinity to CD8 expressed on the cell surface was measured by flow cytometry, and their respective binding affinities are reported in Table 8 and Table 9. Briefly, human or cynomolgus monkey CD3⁺ T cells were incubated with […] of anti-CD8 antibodies (from 250 nM to […]) for 30 minutes. Following the incubation, unbound antibodies were washed away, and the bound antibodies were detected with a AlexaFluor-647-labeled anti-human Fc detection antibody. The median fluorescence intensity of AlexaFluor-647 on the live cells was used to evaluate anti-CD8 antibody levels on the cell surface. Binding affinity (KD) values for anti-CD8 antibody T cell binding were determined with GraphPad Prism 7.0 using 4-Parameter logistic regression.

[5] = biological target: T2, cynomolgus monkey CD8 on cynomolgus cells (cynomolgus monkey); test: flow cytometry on cynomolgus CD3+ T cells, apparent KD, 4PL fit
T2 construct: whole, on cells; also called cynomolgus CD8
Procedure: as §3

[6] = biological target: T1, human CD8 on human T cells; test: flow cytometry, human CD8+ T cells, antibody at 0.2 nM, anti-human IgG detection (MFI AF647)
Procedure: The 24 humanized 02A01-derived anti-CD8 antibodies (excluding 02A01-VK3(D30E/N35Q)) were screened for their ability to bind human CD8 by evaluating binding to CD8+ T cells. The non-humanized parent (“02-Parent”) and the non-humanized parent comprising a heavy chain M39L liability mutation (“02-Parent-VH-M39L”) were used as controls. […] Cells were washed with 1×phosphate buffered saline (PBS) containing 1 mg/mL bovine serum albumin (PBS/BSA) and then stained with a 1:100 dilution of DyLight650-conjugated anti-human IgG H+L polyclonal antibody (ThermoFisher cat. no. Sa5-10129) in PBS/BSA. Following a 20-30 min incubation at 4° C., the cells were washed once with PBS/BSA, and then resuspended in PBS/BSA for analysis on a FACSCelesta using Diva software (BD Biosciences). The resulting data were analyzed using FlowJo. Data were quantified and reported as Max fluorescence intensity (MFI) of human IgG-Fc. […] Complete replacement of the HCDR1 (antibodies comprising VH5) eliminated binding to the CD8+ T cells.

T1 sequence (P01732 22-235): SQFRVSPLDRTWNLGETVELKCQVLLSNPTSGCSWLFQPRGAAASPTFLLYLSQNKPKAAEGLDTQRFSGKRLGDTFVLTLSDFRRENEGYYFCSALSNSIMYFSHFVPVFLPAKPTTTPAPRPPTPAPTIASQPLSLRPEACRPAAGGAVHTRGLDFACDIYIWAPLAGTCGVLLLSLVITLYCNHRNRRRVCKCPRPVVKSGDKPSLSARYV

Row | Fold Change to Parental Apparent KD [1] | Kd [2] | binding result [3] | Binder | further results
1 | – | – | no binding (tested: 5 nM) | humanized 03A01-VH1-VK4 (antibody, human IgG1, V domains shown, human IgG1 format; VK4 has the LCDR1 of the top human germline hit) VH: EVQFQESGPGLVKPSQTLSLTCTVTGYSITSDFAWNWIRQPPGKELEWMGYISYSGDTNYNPSLRSRITISRDTSKNQFSLKLSSVTAADTATYYCTIRGYYTDSAFVFWGQGTLVTVSS VL: DIQMTQSPSTLSVSVGDRVTITCRASQSISSWLAWYQQKPGKAPKLLISGATSLETGVPSRFSGSGSGLEYTLTISSLQPDDFATYYCQQYWNSPFTFGQGTKLEIK | –
2 | – | – | no binding (tested: 5 nM) | humanized 03A01-VH2-VK4 (antibody, human IgG1, V domains shown, human IgG1 format; VK4 has the LCDR1 of the top human germline hit) VH: EVQFQESGPGLVKPSQTLSLTCTVSGYSITSDFAWNWIRQPPGKGLEWMGYISYSGDTNYNPSLRSRITISRDTSKNQFSLKLSSVTAADTAVYYCTIRGYYTDSAFVFWGQGTLVTVSS VL: DIQMTQSPSTLSVSVGDRVTITCRASQSISSWLAWYQQKPGKAPKLLISGATSLETGVPSRFSGSGSGLEYTLTISSLQPDDFATYYCQQYWNSPFTFGQGTKLEIK | –
3 | – | – | no binding (tested: 5 nM) | humanized 03A01-VH4-VK4 (antibody, human IgG1, V domains shown, human IgG1 format; VK4 has the LCDR1 of the top human germline hit) VH: EVQFQESGPGLVKPSQTLSLTCTVSGYSITSDFAWNWIRQPPGKGLEWIGYISYSGDTYYNPSLKSRVTISRDTSKNQFSLKLSSVTAADTAVYYCTIRGYYTDSAFVFWGQGTLVTVSS VL: DIQMTQSPSTLSVSVGDRVTITCRASQSISSWLAWYQQKPGKAPKLLISGATSLETGVPSRFSGSGSGLEYTLTISSLQPDDFATYYCQQYWNSPFTFGQGTKLEIK | –
4 | – | – | no binding (tested: 5 nM) | humanized 03A01-VH3-VK4 (antibody, human IgG1, V domains shown, human IgG1 format; VK4 has the LCDR1 of the top human germline hit) VH: EVQFQESGPGLVKPSQTLSLTCTVSGYSITSDFAWNWIRQPPGKGLEWMGYISYSGDTNYNPSLKSRVTISRDTSKNQFSLKLSSVTAADTAVYYCTIRGYYTDSAFVFWGQGTLVTVSS VL: DIQMTQSPSTLSVSVGDRVTITCRASQSISSWLAWYQQKPGKAPKLLISGATSLETGVPSRFSGSGSGLEYTLTISSLQPDDFATYYCQQYWNSPFTFGQGTKLEIK | –

Further lines, the binder ahead of its results:

Row | Binder | Fold Change to Parental Apparent KD [1] | Kd [2] | binding result [3] | further results
5 | humanized 03A01-VH2-VK2 (antibody, human IgG1, V domains shown, human IgG1 format; also called 03-VH2/VK2) VH: EVQFQESGPGLVKPSQTLSLTCTVSGYSITSDFAWNWIRQPPGKGLEWMGYISYSGDTNYNPSLRSRITISRDTSKNQFSLKLSSVTAADTAVYYCTIRGYYTDSAFVFWGQGTLVTVSS VL: DIQMTQSPSTLSVSVGDRVTITCKASDHINNWLAWYQQKPGKAPKLLISGATSLETGVPSRFSGSGSGLEYTLTISSLQPDDFATYYCQQYWNSPFTFGQGTKLEIK | 2 fold | 1.84 nM | – | –
6 | humanized 03A01-VH3-VK3 (antibody, human IgG1, V domains shown, human IgG1 format; also called 03-VH3/VK3) VH: EVQFQESGPGLVKPSQTLSLTCTVSGYSITSDFAWNWIRQPPGKGLEWMGYISYSGDTNYNPSLKSRVTISRDTSKNQFSLKLSSVTAADTAVYYCTIRGYYTDSAFVFWGQGTLVTVSS VL: DIQMTQSPSTLSASVGDRVTITCKASDHINNWLAWYQQKPGKAPKLLISGATSLETGVPSRFSGSGSGLEYTLTISSLQPDDFATYYCQQYWNSPFTFGQGTKLEIK | 2.1 fold | 1.98 nM | – | –
7 | humanized 03A01-VH1-VK3 (antibody, human IgG1, V domains shown, human IgG1 format; also called 03-VH1/VK3) VH: EVQFQESGPGLVKPSQTLSLTCTVTGYSITSDFAWNWIRQPPGKELEWMGYISYSGDTNYNPSLRSRITISRDTSKNQFSLKLSSVTAADTATYYCTIRGYYTDSAFVFWGQGTLVTVSS VL: DIQMTQSPSTLSASVGDRVTITCKASDHINNWLAWYQQKPGKAPKLLISGATSLETGVPSRFSGSGSGLEYTLTISSLQPDDFATYYCQQYWNSPFTFGQGTKLEIK | 1.7 fold | 1.6 nM | – | –
8 | humanized 03A01-VH3-VK1 (antibody, human IgG1, V domains shown, human IgG1 format; also called 03-VH3/VK1) VH: EVQFQESGPGLVKPSQTLSLTCTVSGYSITSDFAWNWIRQPPGKGLEWMGYISYSGDTNYNPSLKSRVTISRDTSKNQFSLKLSSVTAADTAVYYCTIRGYYTDSAFVFWGQGTLVTVSS VL: DIQMTQSSSTLSVSLGDRVTITCKASDHINNWLAWYQQKPGKAPRLLISGATSLETGVPSRFSGSGSGLEYTLTISSLQPDDFATYYCQQYWNSPFTFGQGTKLEIK | 1.8 fold | 1.65 nM | – | –
9 | humanized 03A01-VH2-VK3 (antibody, human IgG1, V domains shown, human IgG1 format; also called 03-VH2/VK3) VH: EVQFQESGPGLVKPSQTLSLTCTVSGYSITSDFAWNWIRQPPGKGLEWMGYISYSGDTNYNPSLRSRITISRDTSKNQFSLKLSSVTAADTAVYYCTIRGYYTDSAFVFWGQGTLVTVSS VL: DIQMTQSPSTLSASVGDRVTITCKASDHINNWLAWYQQKPGKAPKLLISGATSLETGVPSRFSGSGSGLEYTLTISSLQPDDFATYYCQQYWNSPFTFGQGTKLEIK | 2.1 fold | 1.91 nM | – | –
10 | 05F10 (antibody, V domains shown, Recombinantly produced murine anti-CD8 IgG) VH: EVQLVESGGGLVKPGGSLKLSCAASGFTFSSFAMSWVRQTPAKRLEWVATISSGDLSANYPDTVKGRFTISRDNAKNTLYLQMSSLRSEDTAMYYCTRPPFYFSNDWFAYWGQGTLVTVSA VL: DVVMTQTPLSLPVSLEDQASISCRSSQSLEHSNGNTYLHWYLQKPGQSPRLLIYKVSNRFSGVPDRFSGSGSGTDFTLKISRVEAEDLGVYFCSQSTHVPFTFGSGTKLEIK | – | – | – | Kd [4]: 0.242 nM; Kd [5]: 39.8 nM
11 | humanized 02A01-VH5-VK1 (antibody, human IgG1, V domains shown, human IgG1 format; VH5 has the HCDR1 of the top human germline hit) VH: EVQLVQSGAEVKKPGATLKISCKASGYTFTDYYMHWVQQAPGKGLEWIGLVNPNNGGNIYNQNFKGRATLTVDTSTSTAYMELSSLRSEDTSVYYCGRVPLYTSHGMDYWGQGTLVTVSS VL: EIVLTQSPATLSVSPGERATISCRASESVDSYDINSMHWYQQKPGQPPRLLIYRASHLQSGIPARFSGSGSRTDFTLTISSVEPEDFATYYCQQSNEDPLTFGQGTKLEIK | – | – | – | binding result [6]: no binding (tested: 0.2 nM)
12 | humanized 02A01-VH5-VK2 (antibody, human IgG1, V domains shown, human IgG1 format; VH5 has the HCDR1 of the top human germline hit) VH: EVQLVQSGAEVKKPGATLKISCKASGYTFTDYYMHWVQQAPGKGLEWIGLVNPNNGGNIYNQNFKGRATLTVDTSTSTAYMELSSLRSEDTSVYYCGRVPLYTSHGMDYWGQGTLVTVSS VL: EIVLTQSPATLSVSPGERATISCRASESVDSYDINSMHWYQQKPGQAPRLLIYRASHLQSGIPARFSGSGSRTDFTLTISSVEPEDFATYYCQQSNEDPLTFGQGTKLEIK | – | – | – | binding result [6]: no binding (tested: 0.2 nM)
13 | humanized 02A01-VH5-VK3 (antibody, human IgG1, V domains shown, human IgG1 format; VH5 has the HCDR1 of the top human germline hit) VH: EVQLVQSGAEVKKPGATLKISCKASGYTFTDYYMHWVQQAPGKGLEWIGLVNPNNGGNIYNQNFKGRATLTVDTSTSTAYMELSSLRSEDTSVYYCGRVPLYTSHGMDYWGQGTLVTVSS VL: EIVLTQSPATLSLSPGERATISCRASESVDSYDINSMHWYQQKPGQAPRLLIYRASHLQSGIPARFSGSGSRTDFTLTISSLEPEDFATYYCQQSNEDPLTFGQGTKLEIK | – | – | – | binding result [6]: no binding (tested: 0.2 nM)
